Laboratory results reported in US12630850B2, “Enzymatic break down of chlorogenic acid in sunflower-containing products” (Chapman University, priority 2022, dated 2026).
Where “and” joins values, the source holds several entries; their conditions need not be identical. Equal entries are not always repeated.

Tests used:
Assay type in all cases: biochemical
[1] = Michaelis-Menten assay of CGA hydrolysis in buffer (absorption spectroscopy); settings: for kcat: CGA in buffer, room temperature
Procedure: Enzymatic assays to determine Michaelis-Menten parameters. Michaelis-Menten assays were conducted at 21° C. using an Agilent Technologies Cary 60 UV-Vis spectrophotometer. A stock solution of CGA was prepared by dissolving CGA in 50 mM HEPES pH 8.0 followed by calculation of concentration using the Lambert-Beer law with an extinction coefficient of 17,194 M^−1 cm^−1 at 330 nm. Subsequent dilutions of stock CGA were prepared to achieve final CGA concentrations of 0.02 mM, 0.04 mM, 0.06 mM, 0.10 mM, 0.20 mM, and 0.40 mM CGA. The final CGA esterase concentration in all enzymatic assays was 10 nM unless noted otherwise. All samples used for enzymatic assays were buffered in 50 mM HEPES, pH 8.0. Absorption scans were taken at 0.05 or 0.1 min intervals for 2 min between wavelengths of 250 nm and 400 nm. For CGA concentrations below 0.1 mM, the pathlength was 1 cm. Above 0.1 mM CGA, the pathlength was 0.5 cm.
To measure CGA depletion (Δ[CGA]), Equation 1 was used: […]
A is the absorbance at any time point in the reaction, Ao is the initial absorbance, εCA and εCGA are the extinction coefficients at 340 nm of caffeic acid (CA) and CGA, which are 4.15 mM^−1 cm^−1 and 14.43 mM^−1 cm^−1, respectively. To generate initial rates, (Δ[CGA]| was plotted against time. The change in absorbance during the first minute of the reaction was fit to a linear curve, which is used to generate the reaction rate. We note that the rate of CGA depletion is equivalent to CA formation. To test the effect of salt on enzyme kinetics, the same procedure was used, except that the experiment was run with 0.04 mM CGA buffered in 50 mM HEPES pH 8.0 with 500 mM NaCl.
Temperature-dependence measurements. A circulating water bath was used to run enzymatic reactions at different temperatures to maintain the temperature in the spectrophotometer within 1° C. of the target temperature. Buffered solution, CGA, and CGA esterase samples were pre-incubated for 10 min at the desired temperature before starting a measurement. All other instrument parameters were the same as for room temperature measurements described above.

[2] = CGA esterase kinetics in sunflower meal
Procedure: Chlorogenic acid esterase kinetics in sunflower meal. To determine the Michaelis-Menten parameters of CGA esterase in undefatted SFM, SFM suspensions were made at following concentrations: 1.0 mg mL^−1, 2.5 mg mL^−1, 10.0 mg mL^−1, 30.0 mg mL^−1, and 100.0 mg mL^−1. All samples were made to a final volume of 10 mL in a solution containing 50 mM HEPES, pH 8.0. Treated samples contained a final enzyme concentration of 10 nM. Reactions were stopped by acidifying the solution by adding 120 μL of 37% HCl at regular intervals for 600 s. Samples were subsequently centrifuged at 10,000 rpm for 10 min. […] The supernatant was then filtered using a 0.2 μm filter and loaded onto an HPLC, as described above. The initial amount of CGA that was present prior to adding enzyme was measured using HPLC.
(§1) HPLC quantification of CGA and CA in sunflower meal and protein isolates. All solutions were diluted ten-fold in 0.1% formic acid in HPLC-grade water before analysis. Quantification of CGA and CA concentration was performed using an Agilent 1260 series HPLC instrument (Agilent Technologies) equipped with a quaternary pump, an automated sample injector, a diode array detector, and a 4.6 mm×150 mm Luna C18(2) column with a 5 μm particle size and 100 Å pore size (Phenomenex). The injection volume was 20 μL. To elute analytes, mobile phases composed of 0.1% formic acid in HPLC-grade water (A) and 0.1% formic acid in HPLC-grade acetonitrile (B) were used in a linear gradient. The gradient is as follows: 0 to 13% B in 1 min, up to 27% B at 8 min, up to 100% B at 8.5 min, isocratic at 100% B to 9.5 min, 100% B returned to 0% B at 9.6 min with 3 min post-time. The concentrations of CGA and CA were calculated from peak integration data based on 10-point standard curve that spanned a concentration range of 0 to 0.1 mg mL^−1.

[3] = CGA and CA content of sunflower protein isolates (HPLC); settings: enzyme present
Excerpt: Sunflower meal and sunflower protein treatment with chlorogenic acid esterase. Sunflower seeds were ground using a KitchenAid coffee grinder in two 30 s increments and sieved through a 500 μm filter to make SFM. Two defatting methods were used: cold press and hexane extraction. To make cold pressed SFM, ground seeds were pressed in a Carver Hydraulic Unit Model 3912 3852-0 five times to a pressure of 9,000-10,000 psi. For hexane extracted SFM, fat was removed from ground seeds using a Soxhlet apparatus in 250 mL hexane for 18 h and subsequently dried using a Fischer Scientific Isotemp Oven Model 516G at 45° C. for 3 h. Cold pressed, hexane extracted, and undefatted SFM were then sieved through a 500 μm filter.
To make SPI, 12.5 g of cold pressed, hexane extracted, and undefatted SFM were buffered in 50 mM HEPES at pH 8.0. Samples were continuously stirred for about 10 min until all SFM was completely suspended. Then, 0.2 mg of CGA esterase per g of SFM was added. The final volume for all reactions was 125 mL. In untreated samples, a buffered solution of 50 mM HEPES, pH 8.0 was added instead of the enzyme solution. After 10 min, 0.1 M NaOH was added to each solution until pH reached 9.00±0.03. Samples were left to sit for 30 min and then centrifuged at 5,000 rpm for 20 min at 4° C. The supernatant was placed back into a 250 mL beaker and pH was lowered using 0.1 M HCl to reach an isoelectric pH of 5.00±0.03. Samples were allowed to precipitate at 4° C. overnight (14-16 h). The supernatant was discarded, and the precipitate was lyophilized for 20 h. All experiments (controls and CGA esterase treated samples) were duplicated.
as §1

[4] = CGA in 50 mM HEPES pH 8.0, 20° C.
[5] = SFM supernatant, pH 8.0, 20° C.

B1: CGA esterase: CGA esterase from L. helveticus (Genbank ID: WP_025283955.1, Uniprot ID: U6F2K7), expressed in Escherichia coli; the dimer is the active form (protein, listed as Lactobacillus helveticus)
chain: MSRITIERDGLTLVGDREEPFGEIYDMAIIMHGFAANRNTDLLRQIADDLRDENVASVRFDFNGHGESDGKFEDMTVCNEIADGKAILDYVRTDPHVRDIFLVGHSQGGVVASMLAGLYPDVVKKVVLLAPAAQLKDDALRSNTQGATYDPNHIPDWPLVGNKLGMKLGGFYLRTAQVLPIYEVSQCFTRPVSVIAGTNDQWDPKYAKKYDEVYENSELHMIPNADHRFSGGYKDMAADLTAQFLKPAF
[1]
  Temperature until which the enzyme is active: at least 50 °C
  kcat: 82 s⁻¹ and 82 ± 15.6 s⁻¹
[1]; 20° C. to 50° C.
  Change of CGA esterase activity with temperature: increases only weakly
[1]; 40° C.
  Km: 96 ± 6 µM
  Vmax: 215.4 ± 31.7 mM/min/mg
[1]; [4]
  Km: 90 ± 38 µM
  Vmax: 170.2 ± 32.3 mM/min/mg
[1]; CGA in 50 mM HEPES pH 8.0, 20° C., listed as L. helveticus
  Vmax: 170.2 mM/min/mg
[1]; listed as L. helveticus CGA esterase
  kcat: 82 s⁻¹
[1]; listed as chlorogenic acid esterase from Lactobacillus helveticus
  kcat: 82 s⁻¹
[1]; vs Song & Baik, 2017
  Vmax higher than previously reported: 300 fold
[2]
  Km in SFM lower than in buffered solution: 4.5 fold
  Meal concentration at which maximal CGA hydrolysis activity is achieved: approximately 100 mg mL^−1
  Vmax in SFM lower than in buffered solution: 60 fold
[2]; [5]
  Km: 20 µM
  Vmax: 2.716 mM/min/mg
[3]; SPI from cold pressed SFM
  mg CA/g protein: 3.62 ± 0.05 mg CA/g protein
  mg CGA/g protein: 0.00 ± 0.00 mg CGA/g protein
[3]; SPI from hexane extracted SFM
  mg CA/g protein: 3.38 ± 0.25 mg CA/g protein
  mg CGA/g protein: 0.00 ± 0.00 mg CGA/g protein
[3]; SPI from undefatted SFM
  mg CA/g protein: 1.11 ± 0.38 mg CA/g protein
  mg CGA/g protein: 0.00 ± 0.00 mg CGA/g protein
